Values quoted from earlier work in article PMC7704677.

Columns and labels:
Test in all cases: UV-vis
Conditions in all cases: unphotolysed state; further details not given
Asp89 = tested on: Asp89
Asp75 = tested on: Asp75
Asp85 = Asp85 (UniProt position 98, WARYADWLFTT)
Asp95 = Asp95 (UniProt position 95, FYRYADWLLTV)

## Acetabularia rhodopsin I (ARI) (Acetabularia acetabulum)
Asp89
  pKa: 2.7

## Anabaena sensory rhodopsin (ASR) (Anabaena (Nostoc) sp.)
Asp75
  pKa: 4.0

## Bacteriorhodopsin (HsBR) (Halobacterium salinarum)
Asp85
  pKa: 2.7

## Thermophilic rhodopsin (TR) (Thermus thermophilus)
Asp95
  pKa: 3.4
